The results in this text go back to patent US20060257938A1, “Method of screening for drugs that block ligand binding to a lipid binding protein” (priority 2005, published 2006).

Common to all, as to type: binding
Assay [1] is described as follows: Probe fluorescence ratio response to arachidonic acid relative to ADIFAB2. The note with it: for DR/DR AA: arachidonic acid, response relative to ADIFAB2. The gist of the method: (§1)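 Fluorescently labeled rat intestinal FABP variants were read at two emission wavelengths, near the unbound maximum (about 420 to 480 nm) and the FFA-bound maximum (about 495 to 580 nm). R = Fλ1/Fλ2 after subtracting probe-free intensity; ΔR = R+agent − R0, normalized to ADIFAB2 (rI-FABP-L72A).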

Assay [2] is described as follows: Probe fluorescence ratio response to oleic acid relative to ADIFAB2. The note with it: for DR/DR OA: response relative to ADIFAB2. The essentials: as §1
A short description of assay [3]: Probe fluorescence ratio response to linoleic acid relative to ADIFAB2. The note with it: for DR/DR LA: response relative to ADIFAB2. The gist of the method: as §1
The nature of assay [4]: Probe fluorescence ratio response to palmitic acid relative to ADIFAB2. The note with it: for DR/DR PA: response relative to ADIFAB2. The gist of the method: as §1
Assay [5] in a line: Probe fluorescence ratio response to palmitoleic acid relative to ADIFAB2. The note with it: for DR/DR POA: response relative to ADIFAB2. The gist of the method:
as §1

Assay [6] can be described thus: Probe fluorescence ratio response to linolenic acid relative to ADIFAB2. The note with it: for DR/DR LNA: response relative to ADIFAB2. The gist of the method:
as §1

A short description of assay [7]: Probe fluorescence ratio response to stearic acid relative to ADIFAB2. The note with it: for DR/DR SA: response relative to ADIFAB2. The essentials:
as §1

B1: 72G 74F (protein, listed as Rattus norvegicus)
chain: AFDGTWKVDRNENYEKFMEKMGINVVKRKLGAHDNLKLTITQEGNKFTVKESSNFRNIDVVFELGVDFAYSGAFGTELTGTWTMEGNKLVGKFKRVDNGKELIAVREISGNELIQTYTYEGVEAKRIFKKE
modifications: PEPTIDE (1)...(131) wild-type rat intestinal fatty acid binding protein
As for B1, the “DR/DR AA” value in assay [1] is 1.669. Besides, in assay [2], the “DR/DR OA” value was 1.490. Further, the “DR/DR LA” value in assay [3] is 2.116. Further, the “DR/DR PA” value in assay [4] is 2.304. Also, the “DR/DR POA” value in assay [5] amounted to 2.996. The “DR/DR LNA” value in assay [6] is 1.970. In assay [7], the “DR/DR SA” value is 0.669.

B2: 18L 73L 72A (protein, listed as Rattus norvegicus)
chain: AFDGTWKVDRNENYEKFLEKMGINVVKRKLGAHDNLKLTITQEGNKFTVKESSNFRNIDVVFELGVDFAYSALDGTELTGTWTMEGNKLVGKFKRVDNGKELIAVREISGNELIQTYTYEGVEAKRIFKKE
modifications: PEPTIDE (1)...(131) wild-type rat intestinal fatty acid binding protein
In the case of B2, in assay [1], the “DR/DR AA” value was 0.441. Besides, the “DR/DR OA” value in assay [2] came to 0.021. Moreover, the “DR/DR LA” value in assay [3] is reported as 0.019. Further, the “DR/DR PA” value in assay [4] was −0.004. Moreover, the “DR/DR POA” value in assay [5] was 0.092. Besides, the “DR/DR LNA” value in assay [6] stood at 0.090. In assay [7], the “DR/DR SA” value is given as 0.254.

B3: 73N 72A 74F (protein, listed as Rattus norvegicus)
chain: AFDGTWKVDRNENYEKFMEKMGINVVKRKLGAHDNLKLTITQEGNKFTVKESSNFRNIDVVFELGVDFAYSANFGTELTGTWTMEGNKLVGKFKRVDNGKELIAVREISGNELIQTYTYEGVEAKRIFKKE
modifications: PEPTIDE (1)...(131) wild-type rat intestinal fatty acid binding protein
On to B3, for which the “DR/DR AA” value in assay [1] was found to be 0.870. Moreover, the “DR/DR OA” value in assay [2] worked out at 0.775. For the same molecule, in assay [3], the “DR/DR LA” value was 0.976. Further, the “DR/DR PA” value in assay [4] worked out at 1.468. Further, the “DR/DR POA” value in assay [5] amounted to 2.256. Moreover, the “DR/DR LNA” value in assay [6] amounted to 1.299. Further, the “DR/DR SA” value in assay [7] worked out at 0.271.

B4: L2P4C5: FABP probe, substitutions M18I G31Y vs SEQ ID NO: 2 (protein, listed as Rattus norvegicus)
chain: AFDGTWKVDRNENYEKFIEKMGINVVKRKLYAHDNLKLTITQEGNKFTVKESSNFRNIDVVFELGVDFAYSLADGTELTGTWTMEGNKLVGKFKRVDNGKELIAVREISGNELIQTYTYEGVEAKRIFKKE
modifications: PEPTIDE (1)...(131) wild-type rat intestinal fatty acid binding protein
As to B4, in assay [1] (Table 5, Arachidonic acid), the “ΔR/DRAΔ2 AA” value is 2.2. In addition, the “ΔR/DRAΔ2 OA” value in assay [2] (Table 5) is 2.1. Further, the “ΔR/DRAΔ2 LA” value in assay [3] (Table 5) is recorded as 2.8. In addition, the “ΔR/DRAΔ2 PA” value in assay [4] (Table 5) is given as 1.8. In assay [5] (Table 5), the “ΔR/DRAΔ2 POA” value is given as 2.6. For the same molecule, the “ΔR/DRAΔ2 LNA” value in assay [6] (Table 5) is reported as 2.8. The “ΔR/DRAΔ2 SA” value in assay [7] (Table 5) is 1.0.

B5: 18I 31L 73L 72A (protein, listed as Rattus norvegicus)
chain: AFDGTWKVDRNENYEKFIEKMGINVVKRKLLAHDNLKLTITQEGNKFTVKESSNFRNIDVVFELGVDFAYSALDGTELTGTWTMEGNKLVGKFKRVDNGKELIAVREISGNELIQTYTYEGVEAKRIFKKE
modifications: PEPTIDE (1)...(131) wild-type rat intestinal fatty acid binding protein
On to B5, for which the “DR/DR AA” value in assay [1] is on record as 0.626. In addition, in assay [2], the “DR/DR OA” value is given as 0.549. Further, the “DR/DR LA” value in assay [3] stood at 0.682. Also, the “DR/DR PA” value in assay [4] stood at 1.075. For the same molecule, in assay [5], the “DR/DR POA” value is given as 0.781. In assay [6], the “DR/DR LNA” value worked out at 0.857. Further, in assay [7], the “DR/DR SA” value worked out at 0.390.

B6: 18L 55L 73I 72A (protein, listed as Rattus norvegicus)
chain: AFDGTWKVDRNENYEKFLEKMGINVVKRKLGAHDNLKLTITQEGNKFTVKESSNLRNIDVVFELGVDFAYSAIDGTELTGTWTMEGNKLVGKFKRVDNGKELIAVREISGNELIQTYTYEGVEAKRIFKKE
modifications: PEPTIDE (1)...(131) wild-type rat intestinal fatty acid binding protein
Take B6: in assay [1], the “DR/DR AA” value came out at 0.443. Also, the “DR/DR OA” value in assay [2] was 0.021. The “DR/DR LA” value in assay [3] is −0.129. Further, in assay [4], the “DR/DR PA” value is 0.007. In addition, in assay [5], the “DR/DR POA” value was −0.030. In addition, the “DR/DR LNA” value in assay [6] was −0.044. Besides, the “DR/DR SA” value in assay [7] turned out to be 0.423.

B7: 21W 78F 72A (protein, listed as Rattus norvegicus)
chain: AFDGTWKVDRNENYEKFMEKWGINVVKRKLGAHDNLKLTITQEGNKFTVKESSNFRNIDVVFELGVDFAYSAADGTEFTGTWTMEGNKLVGKFKRVDNGKELIAVREISGNELIQTYTYEGVEAKRIFKKE
modifications: PEPTIDE (1)...(131) wild-type rat intestinal fatty acid binding protein
Regarding B7, the “DR/DR AA” value in assay [1] turned out to be 4.264. Besides, the “DR/DR OA” value in assay [2] turned out to be 1.843. For the same molecule, the “DR/DR LA” value in assay [3] was 1.597. Also, the “DR/DR PA” value in assay [4] was 0.851. Also, the “DR/DR POA” value in assay [5] was 1.217. Also, the “DR/DR LNA” value in assay [6] amounted to 1.694. Moreover, the “DR/DR SA” value in assay [7] is 1.161.

B8: 14L 18S 31L 73V 117A 72A (protein, listed as Rattus norvegicus)
chain: AFDGTWKVDRNENLEKFSEKMGINVVKRKLLAHDNLKLTITQEGNKFTVKESSNFRNIDVVFELGVDFAYSAVDGTELTGTWTMEGNKLVGKFKRVDNGKELIAVREISGNELIQTATYEGVEAKRIFKKE
modifications: PEPTIDE (1)...(131) wild-type rat intestinal fatty acid binding protein
Regarding B8, the “DR/DR AA” value in assay [1] is listed as 0.951. Besides, in assay [2], the “DR/DR OA” value is listed as 0.020. In assay [3], the “DR/DR LA” value came to 0.534. The “DR/DR PA” value in assay [4] turned out to be 0.028. Also, the “DR/DR POA” value in assay [5] is recorded as −0.003. In assay [6], the “DR/DR LNA” value was 0.673. Also, the “DR/DR SA” value in assay [7] is on record as 0.007.

B9: 73I 72A (protein, listed as Rattus norvegicus)
chain: AFDGTWKVDRNENYEKFMEKMGINVVKRKLGAHDNLKLTITQEGNKFTVKESSNFRNIDVVFELGVDFAYSAIDGTELTGTWTMEGNKLVGKFKRVDNGKELIAVREISGNELIQTYTYEGVEAKRIFKKE
modifications: PEPTIDE (1)...(131) wild-type rat intestinal fatty acid binding protein
On to B9, for which the “DR/DR AA” value in assay [1] worked out at 0.408. For the same molecule, in assay [2], the “DR/DR OA” value was determined as 0.045. In assay [3], the “DR/DR LA” value was found to be 0.039. The “DR/DR PA” value in assay [4] turned out to be 0.015. For the same molecule, in assay [5], the “DR/DR POA” value is 0.117. For the same molecule, the “DR/DR LNA” value in assay [6] is 0.099. Moreover, in assay [7], the “DR/DR SA” value is 0.242.

B10: 21W 78I 72A (protein, listed as Rattus norvegicus)
chain: AFDGTWKVDRNENYEKFMEKWGINVVKRKLGAHDNLKLTITQEGNKFTVKESSNFRNIDVVFELGVDFAYSAADGTEITGTWTMEGNKLVGKFKRVDNGKELIAVREISGNELIQTYTYEGVEAKRIFKKE
modifications: PEPTIDE (1)...(131) wild-type rat intestinal fatty acid binding protein
On to B10, for which, in assay [1], the “DR/DR AA” value is 6.322. In assay [2], the “DR/DR OA” value is 4.703. In addition, the “DR/DR LA” value in assay [3] turned out to be 4.381. Besides, the “DR/DR PA” value in assay [4] was 2.759. The “DR/DR POA” value in assay [5] worked out at 3.284. Besides, in assay [6], the “DR/DR LNA” value was determined as 4.024. Further, the “DR/DR SA” value in assay [7] is 3.396.

B11: 38Q 106W 117A 72A (protein, listed as Rattus norvegicus)
chain: AFDGTWKVDRNENYEKFMEKMGINVVKRKLGAHDNLKQTITQEGNKFTVKESSNFRNIDVVFELGVDFAYSAADGTELTGTWTMEGNKLVGKFKRVDNGKELIAVWEISGNELIQTATYEGVEAKRIFKKE
modifications: PEPTIDE (1)...(131) wild-type rat intestinal fatty acid binding protein
On to B11, for which the “DR/DR AA” value in assay [1] was 1.078. The “DR/DR OA” value in assay [2] was determined as 0.899. For the same molecule, in assay [3], the “DR/DR LA” value came to 0.860. In assay [4], the “DR/DR PA” value is 0.444. Also, in assay [5], the “DR/DR POA” value is given as 0.970. Moreover, the “DR/DR LNA” value in assay [6] is on record as 0.795. For the same molecule, the “DR/DR SA” value in assay [7] was 0.281.

B12: 14V 18L 73V 117A 72A (protein, listed as Rattus norvegicus)
chain: AFDGTWKVDRNENVEKFLEKMGINVVKRKLGAHDNLKLTITQEGNKFTVKESSNFRNIDVVFELGVDFAYSAVDGTELTGTWTMEGNKLVGKFKRVDNGKELIAVREISGNELIQTATYEGVEAKRIFKKE
modifications: PEPTIDE (1)...(131) wild-type rat intestinal fatty acid binding protein
For B12, in assay [1], the “DR/DR AA” value is recorded as 0.926. In assay [2], the “DR/DR OA” value is 0.307. Also, the “DR/DR LA” value in assay [3] was found to be 0.557. In addition, the “DR/DR PA” value in assay [4] is listed as 0.249. The “DR/DR POA” value in assay [5] stood at 0.597. Besides, in assay [6], the “DR/DR LNA” value came to 0.624. The “DR/DR SA” value in assay [7] was 0.105.

B13: 21W 78A 102V 72A (protein, listed as Rattus norvegicus)
chain: AFDGTWKVDRNENYEKFMEKWGINVVKRKLGAHDNLKLTITQEGNKFTVKESSNFRNIDVVFELGVDFAYSAADGTEATGTWTMEGNKLVGKFKRVDNGKEVIAVREISGNELIQTYTYEGVEAKRIFKKE
modifications: PEPTIDE (1)...(131) wild-type rat intestinal fatty acid binding protein
As for B13, in assay [1], the “DR/DR AA” value stood at 4.923. Besides, in assay [2], the “DR/DR OA” value came out at 3.261. In assay [3], the “DR/DR LA” value stood at 2.749. The “DR/DR PA” value in assay [4] is reported as 1.721. The “DR/DR POA” value in assay [5] was found to be 1.585. Further, in assay [6], the “DR/DR LNA” value came to 1.628. In addition, the “DR/DR SA” value in assay [7] was determined as 3.092.
